# Values of other authors, collected in patent US11739305B2, “Sialyltransferase variants having neosialidase activity” (The Regents of the University of California, priority 2017, dated 2023).
# Where two headings read alike, the source gives them in different places.
# B1: hNEU2: human NEU2, an α2-3/6/8-sialidase (protein, UniProt Q9Y3R4 1-380, looked up)
# Sialidase-2: MASLPVLQKESVFQSGAHAYRIPALLYLPGQQSLLAFAEQRASKKDEHAELIVLRRGDYDAPTHQVQWQAQEVVAQARLDGHRSMNPCPLYDAQTGTLFLFFIAIPGQVTEQQQLQTRANVTRLCQVTSTDHGRTWSSPRDLTDAAIGPAYREWSTFAVGPGHCLQLHDRARSLVVPAYAYRKLHPIQRPIPSAFCFLSHDHGRTWARGHFVAQDTLECQVAEVETGEQRVVTLNARSHLRARVQAQSTNDGLDFQESQLVKKLVEPPPQGCQGSVISFPSPRSGPGSPAQWLLYTHPTHSWQRADLGAYLNPRPPAPEAWSEPVLLAKGSCAYSDLQSMGTGPDGSPLFGCLYEANDYEEIVFLMFTLKQAFPAEYLPQ
# B2: Pd2,6ST: Photobacterium damselae α2-6-sialyltransferase, wild-type enzyme (GenBank BAA25316.1, SEQ ID NO: 1) (protein, listed as Photobacterium damselae)
# chain: MKKILTVLSIFILSACNSDNTSLKETVSSNSADVVETETYQLTPIDAPSSFLSHSWEQTCGTPILNESDKQAISFDFVAPELKQDEKYCFTFKGITGDHRYITNTTLTVVAPTLEVYIDHASLPSLQQLIHIIQAKDEYPSNQRFVSWKRVTVDADNANKLNIHTYPLKGNNTSPEMVAAIDEYAQSKNRLNIEFYTNTAHVFNNLPPIIQPLYNNEKVKISHISLYDDGSSEYVSLYQWKDTPNKIETLEGEVSLLANYLAGTSPDAPKGMGNRYNWHKLYDTDYYFLREDYLDVEANLHDLRDYLGSSAKQMPWDEFAKLSDSQQTLFLDIVGFDKEQLQQQYSQSPLPNFIFTGTTTWAGGETKEYYAQQQVNVINNAINETSPYYLGKDYDLFFKGHPAGGVINDIILGSFPDMINIPAKISFEVLMMTDMLPDTVAGIASSLYFTIPADKVNFIVFTSSDTITDREEALKSPLVQVMLTLGIVKEKDVLFWADHKVNSMEVAIDEACTRIIAKRQPTASDLRLVIAIIKTITDLERIGDVAESIAKVALESFSNKQYNLLVSLESLGQHTVRMLHEVLDAFARMDVKAAIEVYQEDDRIDQEYESIVRQLMAHMMEDPSSIPNVMKVMWAARSIERVGDRCQNICEYIIYFVKGKDVRHTKPDDFGTMLD
# What was measured:
# [1] = reported previously using Neu5Acα2-6GalβpNP as the substrate (Li, Chen, et al. Mol. BioSyst. 2011)
# [2] = wild-type, reported previously (Cheng, Chen, et al. Glycobiology 2010)
# [3] = CMP-Neu5Ac hydrolysis, wild-type, reported previously (McArthur, Chen, et al. Org. Biomol. Chem. 2017)
Molecule,Km [1] [mM],kcat [1] [min⁻¹],Km [2] [mM],kcat [2] [min⁻¹],Km [3] [mM],kcat [3]
B1,2.1 ± 0.2,10.8 ± 0.6,,,,
B2,,,7.6 ± 0.5,8.2 ± 0.3,45 ± 14,(4.0 ± 0.9) × 10^2 min^−1
